B1: SEQ ID NO 179 (designed binder)
chain: PLSPPTNLHLEANPDTGVLTVSWERSTTPDITMYDIKTIYYKAYYYGLEEVVHADQSSCTFDNLSPGLYYFVGVVTVERPRYYPISDTIIP
B2: SEQ ID NO 177 (designed binder)
chain: PLSPPTNLHLEANPDTGVLTVSWERSTTPDITMYSIYTYDYTRNYVLEEAVHADQSSCTFDNLSPGLYGYYVGVGTVTGAGWHPISDTIIP
B3: SEQ ID NO 169 (designed binder)
chain: PLSPPTNLHLEANPDTGVLTVSWERSTTPDITDYYIITRSRWGYLEEVVHADQSSCTFDNLSPGLRYHVYVWTVGHYRDPISDTIIP
B4: SEQ ID NO 171 (designed binder)
chain: PLSPPTNLHLEANPDTGVLTVSWERSTTPDITYYTIATADYTYSYAHLEEVVHADQSSCTFDNLSPGLNYEVGVGTVSVYSYIGPISDTIIP
B5: SEQ ID NO 173 (designed binder)
chain: PLSPPTNLHLEANPDTGVLTVSWERSTTPDITMYAITTYEYSRAWQYLEEVVHADQSSCTFDNLSPGLTYYVEVYTVRYTWSDPISDTIIP
B6: SEQ ID NO 161 (designed binder)
chain: PLSPPTNLHLEANPDTGVLTVSWERSTTRDITTYGIETEYDHSVGLEEVVHADQSSCTFDNLSPGLNYDVEVVTVGWGVYQRPISDTIIP
B7: SEQ ID NO 183 (designed binder)
chain: PLSPPTNLHLEANPDTGVLTVSWERSTTPDITKYIISTYVDYGGYLEEVVHADQSSCTFDNLSPGLGYSVTVSTVSAGWDSPISDTIIP
B8: SEQ ID NO 184 (designed binder)
chain: PLSPPTNLHLEANPDTGVLTVSWERSTTPDITSYRISTEWRWRYTGLEEVVHADQSSCTFDNLSPGLIYGVGVSTVWKHNSQAPISDTIIP
B9: SEQ ID NO 186 (designed binder)
chain: PLSPPTNLHLEANPDTGVLTVSWERSTTPDITGYSIATYLTYSNLVGLEEVVHADQSSCTFDNLSPGLSYKVSVYTVYGYSYGPISDTIIP
B10: SEQ ID NO 178 (designed binder)
chain: PLSPPTNLHLEVNPDTGVLTVSWERSTTPGITQYDIATLSYGGRSGGLEEVVHADQSSCTFDNLSPGLSYVVSVSTVTSNEYSAPISDTIIP
B11: SEQ ID NO 163 (designed binder)
chain: SLSPPTNLHLEANPDTGVLTVGWERSTTPGITSYSIDTAKDDVPYLEEVVHADQSSCTFDNLSPGLNYTVVVATVGWSVDGPISDTIIP
B12: SEQ ID NO 165 (designed binder)
chain: PLSPPTNLHLEANPDTGVLTVSWERSTTPDITYYGIWTLTWLQYYSYRWGLEEAVHADQSSCTFDNLSPGLVYLVYVGTVRSPMARPISDTIIP
B13: SEQ ID NO 164 (designed binder)
chain: PLSPPTNLHLEANPDTGVLTVSWERSTTPDITYYEINTTGYYGFYPGGLEEVVHADQSSCTFDNLSPGLYYQVTVQTVVYSMWYHPISDTIIP
B14: SEQ ID NO 166 (designed binder)
chain: PLSPPTNLHLEANPDTGVLTVSWERSTTPDITWYWIGTWYSGYMVGLEEVVHADQSSCTFDNLSPGLTYWVLVGTVVRSPSRRPISDTIIP
B15: SEQ ID NO 172 (designed binder)
chain: PLSPPTNLHLEANPDTGVLTVSWERSTTPDITYYSIDTWTFGQWGLEEVVHADQSSCTFDNLSPGLYYYVEVVTVYEWAYSYPISDTIIP
B16: SEQ ID NO 175 (designed binder)
chain: PLSPPTNLHLEANPDTGVLTVSWERSTTPDITWYWINTSLANVRMSLEEVVHADQSGCTFDNLSPGLYYDVQVRTVSAAEGYPISDTIIP
B17: SEQ ID NO 168 (designed binder)
chain: PLSPPTNLHLEANPDTGVLTVSWERSTTPDITTYGIETQTVEWVYYLEEVVHADQSSCTFDNLSPGLYYNVTVGTVMLDAAYPISDTIIP
B18: SEQ ID NO 187 (designed binder)
chain: PLSPPTNLHLEANPDTGVLTVSWERSTTSDITKYYIATWFGDYGYSLEEVVHADQSSCTFDNLSPGLQYGVSVATVKGGQAHYPISDTIIP
B19: SEQ ID NO 181 (designed binder)
chain: PLSPPTNLHLEANPDTGVLTVSWERSTTPDITYYYIGTYQGTTYEHLEEVVHADQSSCTFDNLSPGLIYLVYVSTVYWDSMSSPISDTIIP
B20: SEQ ID NO 185 (designed binder)
chain: PLSPPTNLHLEANPDTGVLTVSWERSTTPDITMYYISTGGSSYKPDRLEEVVHADQSSCTFDNLSPGLDYMVYVRTVMYYNRSPISDTIIP
B21: SEQ ID NO 170 (designed binder)
chain: PLSPPTNLHLEANPDTGVLTVSWERSTTPDITNYLIQTDYFAFIKGVLEEVVHADQSSCTFDNLSPGLYYYVGVDTVSVPSHGPISDTIIP
B22: SEQ ID NO 189 (designed binder)
chain: PLSPPTNLHLEANPDTGVLTVSWERSTTPDITYYSITTSFYYSELEEVVHADQSSCTFDNLSPGLKYMVSVSTVSYSVGSPISDTIIP
B23: SEQ ID NO 180 (designed binder)
chain: PLSPPTNLHLEANPDTGVLTVSWERSTTPDITYYYIDTNGGYWSYLEEVVHADQSSCTFDNLSPGLGYPVGYVRTVYAGWLKGPISDTIIP
B24: SEQ ID NO 174 (designed binder)
chain: PLSPPTNLHLEANPDTGVLTVSWERSTTPDITDYNISTWLYTSVSVYTELEEVVHAGQSSCTFDNLSPGLAYVVYVWSTVWEHFYPSPISDTIIP
B25: SEQ ID NO 182 (designed binder)
chain: PLSPPANLRLEANPDTGVLTVSWERSTTPDITRYVIATGYGGSWYHLEEVVHADQSRCTFDNLSPGLAYYVDVYTVTPGEKHSPISDTIIP
B26: SEQ ID NO 167 (designed binder)
chain: PLSPPTNLHLEANPDTGVLTVSWERSTTPDVTTYSIYTYGYWDSHYMSLEEVVHADQSRCTFDNLSPGLYYSVEVYTVYYGLYVVPISDTIIP
B27: SEQ ID NO 176 (designed binder)
chain: PLSPPTNLHLEANPDTGVLTVSWERSTTPDITKYIIYTGYGASYDLEEVVHADQSSCTFDNLSPGLKYTVTVWTVSYASQVPISDTIIP
B28: SEQ ID NO 188 (designed binder)
chain: PLSPPTNLHLEANPDTGVLTVSWERSTTPDITKYYILTSGYWGGGLEEVVHADQSSCTFDNLSPGLTYLVSVWTVTHYAGYPISDTIIP

Target: T1, human serum albumin (human, UniProt P02768 25-609)
T1 construct: also called HSA
T1 sequence (P02768 25-609 limits assumed): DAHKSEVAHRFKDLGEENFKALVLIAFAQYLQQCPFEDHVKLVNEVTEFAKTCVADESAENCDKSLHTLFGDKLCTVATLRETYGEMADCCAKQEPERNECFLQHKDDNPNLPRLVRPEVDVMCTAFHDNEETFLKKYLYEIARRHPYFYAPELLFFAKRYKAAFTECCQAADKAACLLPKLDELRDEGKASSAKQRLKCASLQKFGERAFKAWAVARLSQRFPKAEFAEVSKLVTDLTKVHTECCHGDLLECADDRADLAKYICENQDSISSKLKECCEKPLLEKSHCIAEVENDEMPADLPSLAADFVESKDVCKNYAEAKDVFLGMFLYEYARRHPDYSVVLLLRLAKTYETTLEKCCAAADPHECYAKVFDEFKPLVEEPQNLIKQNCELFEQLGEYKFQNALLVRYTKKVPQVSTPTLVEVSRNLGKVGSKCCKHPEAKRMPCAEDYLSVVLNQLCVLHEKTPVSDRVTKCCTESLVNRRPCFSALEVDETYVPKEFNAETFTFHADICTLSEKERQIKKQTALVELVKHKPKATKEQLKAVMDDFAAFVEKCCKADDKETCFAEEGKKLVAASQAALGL
Experiment: cradle library selection hit

Binding result, binds:
B1, B2, B3, B4, B5, B6, B7, B8, B9, B10, B11, B12, B13, B14, B15, B16, B17, B18, B19, B20, B21, B22, B23, B24, B25, B26, B27, B28

Source: patent US20140057807A1 (UNIVERSITY OF CHICAGO, published 2014)
